Results taken from paper PMC11574045, “A cofactor-induced repressive type of transcription factor condensation can be induced by synthetic peptides to suppress tumorigenesis” (The EMBO Journal, 2024).

B1: SNAPC4 (protein, UniProt Q5SXM2 1-1469, looked up)
snRNA-activating protein …: MDVDAEREKITQEIKELERILDPGSSGSHVEISESSLESDSEADSLPSEDLDPADPPISEEERWGEASNDEDDPKDKTLPEDPETCLQLNMVYQEVIQEKLAEANLLLAQNREQQEELMRDLAGSKGTKVKDGKSLPPSTYMGHFMKPYFKDKVTGVGPPANEDTREKAAQGIKAFEELLVTKWKNWEKALLRKSVVSDRLQRLLQPKLLKLEYLHQKQSKVSSELERQALEKQGREAEKEIQDINQLPEEALLGNRLDSHDWEKISNINFEGSRSAEEIRKFWQNSEHPSINKQEWSREEEERLQAIAAAHGHLEWQKIAEELGTSRSAFQCLQKFQQHNKALKRKEWTEEEDRMLTQLVQEMRVGSHIPYRRIVYYMEGRDSMQLIYRWTKSLDPGLKKGYWAPEEDAKLLQAVAKYGEQDWFKIREEVPGRSDAQCRDRYLRRLHFSLKKGRWNLKEEEQLIELIEKYGVGHWAKIASELPHRSGSQCLSKWKIMMGKKQGLRRRRRRARHSVRWSSTSSSGSSSGSSGGSSSSSSSSSEEDEPEQAQAGEGDRALLSPQYMVPDMDLWVPARQSTSQPWRGGAGAWLGGPAASLSPPKGSSASQGGSKEASTTAAAPGEETSPVQVPARAHGPVPRSAQASHSADTRPAGAEKQALEGGRRLLTVPVETVLRVLRANTAARSCTQKEQLRQPPLPTSSPGVSSGDSVARSHVQWLRHRATQSGQRRWRHALHRRLLNRRLLLAVTPWVGDVVVPCTQASQRPAVVQTQADGLREQLQQARLASTPVFTLFTQLFHIDTAGCLEVVRERKALPPRLPQAGARDPPVHLLQASSSAQSTPGHLFPNVPAQEASKSASHKGSRRLASSRVERTLPQASLLASTGPRPKPKTVSELLQEKRLQEARAREATRGPVVLPSQLLVSSSVILQPPLPHTPHGRPAPGPTVLNVPLSGPGAPAAAKPGTSGSWQEAGTSAKDKRLSTMQALPLAPVFSEAEGTAPAASQAPALGPGQISVSCPESGLGQSQAPAASRKQGLPEAPPFLPAAPSPTPLPVQPLSLTHIGGPHVATSVPLPVTWVLTAQGLLPVPVPAVVSLPRPAGTPGPAGLLATLLPPLTETRAAQGPRAPALSSSWQPPANMNREPEPSCRTDTPAPPTHALSQSPAEADGSVAFVPGEAQVAREIPEPRTSSHADPPEAEPPWSGRLPAFGGVIPATEPRGTPGSPSGTQEPRGPLGLEKLPLRQPGPEKGALDLEKPPLPQPGPEKGALDLGLLSQEGEAATQQWLGGQRGVRVPLLGSRLPYQPPALCSLRALSGLLLHKKALEHKATSLVVGGEAERPAGALQASLGLVRGQLQDNPAYLLLRARFLAAFTLPALLATLAPQGVRTTLSVPSRVGSESEDEDLLSELELADRDGQPGCTTATCPIQGAPDSGKCSASSCLDTSNDPDDLDVLRTRHARHTRKRRRLV
B2: SND1 (protein, UniProt Q7KZF4 2-910, looked up)
Staphylococcal nuclease …: ASSAQSGGSSGGPAVPTVQRGIIKMVLSGCAIIVRGQPRGGPPPERQINLSNIRAGNLARRAAATQPDAKDTPDEPWAFPAREFLRKKLIGKEVCFTIENKTPQGREYGMIYLGKDTNGENIAESLVAEGLATRREGMRANNPEQNRLSECEEQAKAAKKGMWSEGNGSHTIRDLKYTIENPRHFVDSHHQKPVNAIIEHVRDGSVVRALLLPDYYLVTVMLSGIKCPTFRREADGSETPEPFAAEAKFFTESRLLQRDVQIILESCHNQNILGTILHPNGNITELLLKEGFARCVDWSIAVYTRGAEKLRAAERFAKERRLRIWRDYVAPTANLDQKDKQFVAKVMQVLNADAIVVKLNSGDYKTIHLSSIRPPRLEGENTQDKNKKLRPLYDIPYMFEAREFLRKKLIGKKVNVTVDYIRPASPATETVPAFSERTCATVTIGGINIAEALVSKGLATVIRYRQDDDQRSSHYDELLAAEARAIKNGKGLHSKKEVPIHRVADISGDTQKAKQFLPFLQRAGRSEAVVEYVFSGSRLKLYLPKETCLITFLLAGIECPRGARNLPGLVQEGEPFSEEATLFTKELVLQREVEVEVESMDKAGNFIGWLHIDGANLSVLLVEHALSKVHFTAERSSYYKSLLSAEEAAKQKKEKVWAHYEEQPVEEVMPVLEEKERSASYKPVFVTEITDDLHFYVQDVETGTQLEKLMENMRNDIASHPPVEGSYAPRRGEFCIAKFVDGEWYRARVEKVESPAKIHVFYIDYGNREVLPSTRLGTLSPAFSTRVLPAQATEYAFAFIQVPQDDDARTDAVDSVVRDIQNTQCLLNVEHLSAGCPHVTLQFADSKGDVGLGLVKEGLVMVEVRKEKQFQKVITEYLNAQESAKSARLNLWRYGDFRADDADEFGYSR

Test system: HEK293FT cells transfected with TF library
Assay: Screening of TF condensates based on fluorescent puncta
Assay type: cell-based
Conditions: Figure 1B numerical data; TF library screen, one value per transcriptional factor
In short: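 HEK293FT, PEI transfection of TF library, 60 h; ±glucose 12 h; 4% PFA fix, 0.05% Triton X-100 permeabilization, 5% BSA block; anti-Flag/anti-GAL4 overnight at 4 °C, Alexa 488 secondary 1 h; high-content imaging, 50 fields/well.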

Molecule | Z score of condensed fraction
B1 | -0.9989
B2 | 0.9266
